For two proteins, Km, kcat and kcat/Km results are on record in publication PMC4441150, “Synergistic function of four novel thermostable glycoside hydrolases from a long-term enriched thermophilic methanogenic digester” (Frontiers in Microbiology, 2015).

Common to all, as to assay: purified protein
Substrate in series [1]: O=[N+]([O-])c1ccc(O[C@@H]2O[C@H](CO)[C@@H](O)[C@H](O)[C@H]2O)cc1
The note with it: 1-50 mM substrate.

Substrate in series [2]: O=[N+]([O-])c1ccc(O[C@@H]2OC[C@@H](O)[C@H](O)[C@H]2O)cc1
The class given is biochemical, bacterium enrichment culture. Particulars: 1-50 mM substrate.

Substrate in series [3]: O=[N+]([O-])c1ccc(O[C@@H]2O[C@@H](CO)[C@H](O)[C@H]2O)cc1
The class given is biochemical, bacterium enrichment culture. The note with it: optimal conditions of the enzyme (optimum pH 4.5, 60°C), 1-50 mM substrate.

Substrate in series [4]: O=[N+]([O-])c1ccc(O[C@@H]2O[C@H](CO)[C@@H](O[C@@H]3O[C@H](CO)[C@@H](O)[C@H](O)[C@H]3O)[C@H](O)[C@H]2O)cc1
The class given is biochemical, bacterium enrichment culture. The note with it: optimal conditions of the enzyme (optimum pH 6.0, 65°C), 1-50 mM substrate.

[5] abbreviates: optimal conditions of the enzyme (optimum pH 4.5, 60°C), pH 4.5, 60.0 °C.
Setting [6] is: optimal conditions of the enzyme (optimum pH 4.5, 60°C).
[7] abbreviates: optimal conditions of the enzyme (optimum pH 6.0, 65°C), pH 6.0, 65.0 °C.
[8] abbreviates: optimal conditions of the enzyme (optimum pH 6.0, 65°C).

B1: Xyl522 (bacterium enrichment culture) (protein)
chain: MVYKMLFQRSDLPMEERIKDLISRLTLEEKVSQLLYDSAAIPHLGIPEYNWWNECLHGVARAGTATVFPQAIGMAASFNAPLLQQVAEVIATEARAKHHEAARHGDRGIYKGLTFWTPNINIFRDPRWGRGQETYGEDPYLTAQLGIAFVKGLQGDHPKYLKAAACAKHFAVHSGPESLRHSFDARCSQKDLYETYLPAFRALVTEAKVESVMGAYNRTNGEPCCASPTLLQKILREDWGFEGHVVSDCGAIHDIHAHHKVTGSPEESAALAVKNGCDLNCGRVYPALVEAVAQGLISEEEIDRALARLLRTKFKLGLFDPEEEVPYAQIPYEVVACDEHRSLAREMARQSMVLLKNENNLLPLSKELKTVAVIGPNADSRKVLLGNYFGTSSQLVTALEGIRRKLEPNCRVLYAEGCDLTTTRPGYWGNSPREGFAEALAVAERADAVIMCMGVSPDLEGEEGAAANSDGGGDRLTLELPGMQNELIKEVAALGKPLVLVLFSGSPLAVTWAQENVPAIIQAWYPGEEGGNALADIIFGDYNPAGRLPITFVKSLDQLPPFTDYSMEGRTYRYLKEEPLYPFGYGLSYTSFTYSNLQAPAELNIGEELVVQVDVENTGARAGDEVVQLYIRHRDASAAVPHHSLQGFARIRLEPGEKRTVTFRLAPRQLAVFDEEGRCLVEPGAVELLAGGSQPDARSEELTGQKPLLGQVLLVGETLELPR
notes: no signal peptide; pET-28a(+) in E. coli BL21 (DE3), Ni-NTA purified
Usually Km stands for the substrate concentration at which the rate is half of its maximum. For orientation: kcat means the maximal rate divided by the concentration of active sites. By kcat/Km is commonly meant the turnover number divided by the Michaelis constant. Take B1: in “purified protein [1]” (setting [5]), the Km worked out at 15.7 mM, the kcat turned out to be 1.4 s⁻¹ and the kcat/Km came out at 89.2 M⁻¹ s⁻¹. In “purified protein [2]” (setting [6]), the Km stood at 8.8 mM, the turnover number (kcat) is 14.3 s⁻¹ and the kcat/Km came to 1600 M⁻¹ s⁻¹. Moreover, in the series “purified protein [3]”, the Km was determined as 10.0 mM, the kcat is 3.2 s⁻¹ and the kcat/Km turned out to be 320 M⁻¹ s⁻¹.

B2: Bgl8520 (bacterium enrichment culture) (protein)
chain: MNKHNKGGLLMKFPENFVWGAAAASYQIEGAAYEDGKGLSVWDIFTRQKGAIENGDNGDIACNHYHRYKEDVQLMKELGLQAYRLSLSWPRILANGTGKVNQKGLDFYDKLIDELLENGIEPYITLFHWDYPYELYKKGGWLNPDSPDWFAEYTEVVVQKLSDRVKNWITINEPQVFVNLGHKDGVHAPGLKLGMEDLLQISHNVLLAHGKGARVIRETSVQDCRIGLAPSDSPVFPATKSEENIQAARRASFSVEDKGLWAINWWMDPVILGRYPEEGLKIFEEYLPEIKTDDFKIISEPIDFFGVNIYQGVCVKLDDKGQAVPAERKVGYARNAYYWPITPEALYWGPRFYYERYKKPVIITENGMSNVDWVAVDGKVHDPQRIDFTNRYLRELQKAGEDGVDIQGYFHWSLMDNFEWAQGYLERFGLIYVDFETGERIIKDSAYWYKKVIETKGEALYA
notes: as for B1
B2: the Km in the series “purified protein [1]” (setting [7]) is recorded as 0.9 mM; in the series “purified protein [2]” (setting [8]), 0.7 mM; in the series “purified protein [4]”, 2.7 mM. Also, the kcat came out at 124 s⁻¹ in “purified protein [1]” (setting [7]), 0.3 s⁻¹ in the series “purified protein [2]” (setting [8]) and 8.2 s⁻¹ in “purified protein [4]”. Besides, the kcat/Km worked out at 140000 M⁻¹ s⁻¹ in “purified protein [1]” (setting [7]), 430 M⁻¹ s⁻¹ in “purified protein [2]” (setting [8]) and 3000 M⁻¹ s⁻¹ in “purified protein [4]”.
